From paper PMC11163200, “C3d-Targeted factor H inhibits tissue complement in disease models and reduces glomerular injury without affecting circulating complement” (Molecular Therapy, 2024)

Assays:
Settings in all cases: both partners purified
recombinant C3d [1] = biological target: T1, recombinant C3d ( (human, cynomolgus monkey or …, UniProt P01024 1002-1303)); assay: SPR; Biacore 3000 or T200, 25°C; recombinant C3d amine-coupled on a CM5 chip at low density (10 RU); CR2-fH1–5 injected at 0–1,000 nM, 30 μL/min, 120 s association, 180 s dissociation; Langmuir 1:1 fit
T1 construct: C3d fragment of complement C3, recombinant, amine-coupled to the CM5 chip; source: recombinant
T1 sequence (P01024 1002-1303): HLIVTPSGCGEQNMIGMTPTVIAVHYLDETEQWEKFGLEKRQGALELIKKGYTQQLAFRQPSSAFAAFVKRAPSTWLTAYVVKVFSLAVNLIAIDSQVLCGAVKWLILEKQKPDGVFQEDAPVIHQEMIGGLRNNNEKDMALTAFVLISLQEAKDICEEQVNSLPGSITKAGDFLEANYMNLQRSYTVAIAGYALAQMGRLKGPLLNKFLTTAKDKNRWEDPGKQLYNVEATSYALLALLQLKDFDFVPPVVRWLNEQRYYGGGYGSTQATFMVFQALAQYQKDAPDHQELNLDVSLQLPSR

recombinant C3d [2] = biological target: T1, recombinant C3d; assay: SPR; Biacore 3000 or T200, 25°C; recombinant C3d amine-coupled on a CM5 chip at high density (4,200 RU); CR2-fH1–5 injected at 0–1,000 nM, 30 μL/min; Langmuir 1:1 fit
recombinant C3d [3] = biological target: T1, recombinant C3d; assay: SPR; Biacore 3000 or T200, 25°C; recombinant C3d amine-coupled on a CM5 chip at medium density (750 RU); CR2-fH1–5 injected at 0–1,000 nM, 30 μL/min; Langmuir 1:1 fit
recombinant C3d [4] = biological target: T1, recombinant C3d; assay: SPR; Biacore 3000 or T200, 25°C; recombinant C3d amine-coupled on a CM5 chip at medium-high density (2,500 RU); CR2-fH1–5 injected at 0–1,000 nM, 30 μL/min; Langmuir 1:1 fit

B1: TT30 (other)
chain: ISCGSPPPILNGRISYYSTPIAVGTVIRYSCSGTFRLIGEKSLLCITKDKVDGTWDKPAPKCEYFNKYSSCPEPIVPGGYKIRGSTPYRHGDSVTFACKTNFSMNGNKSVWCQANNMWGPTRLPTCVSVFPLECPALPMIHNGHHTSENVGSIAPGLSVTYSCESGYLLVGEKIINCLSSGKWSAVPPTCEEARCKSLGRFPNGKVKEPPILRVGVTANFFCDEGYRLQGPPSSRCVIAGQGVAWTKMPVCEEEDCNELPPRRNTEILTGSWSDQTYPEGTQAIYKCRPGYRSLGNVIMVCRKGEWVALNPLRKCQKRPCGHPGDTPFGTFTLTGGNVFEYGVKAVYTCNEGYQLLGEINYRECDTDGWTNDIPICEVVKCLPVTAPENGKIVSSAMEPDREYHFGQAVRFVCNSGYKIEGDEEMHCSDDGFWSKEKPKCVEISCKSPDVINGSPISQKIIYKENERFQYKCNMGYEYSERGDAVCTESGWRPLPSCEEKSCDNPYIPNGDYSPLRIKHRTGDEITYQCRNGFYPATRGNTAKCTSTGWIPAPRCTL
modifications: Limits are not printed. TT30 is taken as CR2 SCR1-4 (the C3d-binding end) fused directly to factor H SCR1-5, from general knowledge of TT30, with limits from the UniProt Sushi domain features. …
Recombinant C3d [1]
  Kd: 1080 nM
Recombinant C3d [2]
  Kd: 1890 nM
Recombinant C3d [3]
  Kd: 1260 nM
Recombinant C3d [4]
  Kd: 1890 nM
